Assay results taken from publication PMC3664818 (Nucleic Acids Research, 2013).

Target: T1, (His)6-Lif1-K301R (S. cerevisiae, UniProt P53150 1-421, K301R)
T1 sequence (looked up): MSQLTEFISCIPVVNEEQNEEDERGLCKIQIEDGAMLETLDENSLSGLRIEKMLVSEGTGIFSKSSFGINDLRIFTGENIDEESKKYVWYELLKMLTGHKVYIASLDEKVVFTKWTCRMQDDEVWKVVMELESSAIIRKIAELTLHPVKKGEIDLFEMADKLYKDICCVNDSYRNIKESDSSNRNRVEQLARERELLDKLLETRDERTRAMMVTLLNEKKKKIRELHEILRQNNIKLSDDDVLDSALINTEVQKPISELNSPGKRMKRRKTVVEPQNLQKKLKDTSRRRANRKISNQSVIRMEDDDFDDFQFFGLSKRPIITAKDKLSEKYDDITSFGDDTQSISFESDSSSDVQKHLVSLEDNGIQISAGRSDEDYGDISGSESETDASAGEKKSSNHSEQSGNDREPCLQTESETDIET
Assay: pull-down

B1: MBP-Nej1 (natural protein, S. cerevisiae, UniProt Q06148 1-342, looked up)
chain: MDSELKGQQLSDAEWCVKKINGEGNCLLLFLPMSSPTTIVMIVLVSLERLVPYVFKLSQTQLSQQCQSQGFTDSISLNLIKLKLMDILQAPQEINQIGLVDSNLVFSFDVSADITVSINSVPSHVTKDMFYMILQSLCMLLLKLVNLSTQYHYVQRDILNEKQKCLDFLLISLRDLDGGSKVISQWAPENSKNYESLQQCTDDDIIKKLLHKGKFQHQEFLADSLKTLLSLRNKFQDVSRFEESGELNKKERVRFPAVNHFYNDDFELQADPTNEARPNSRGKIKPKTDFKPKSRESSTSSQLRLENFSESEATPEKTKSSSSLVEEYPQKKRKFGKVRIKN
binding result: binds
